These are literature values, as cited in paper PMC4223872.

In the series the target is Calmodulin C-lobe (Homo sapiens) (UniProt P0DP23). In words: ITC.

Sequence of Nav1.5 1489-1522 (Q14524 1489-1522): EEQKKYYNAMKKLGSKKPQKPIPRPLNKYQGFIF

Regarding Nav1.5 1489-1522 (from UniProt Q14524), the equilibrium dissociation constant (Kd) (commonly the free concentration of one partner at which half of the binding sites on the other are occupied at equilibrium, for simple one-to-one binding) was 19 µM.
